Measured values reported in patent US20260250410A1, “ANTIBODY AND USE THEREOF” (SICHUAN HUIYU PHARMACEUTICAL CO., LTD., priority 2022, published 2026).
Substitutions are numbered along the chain they refer to.

B1: 1CP-151: humanized anti-CDCP1 antibody produced by 8C9; VH SEQ ID NO: 343, VL SEQ ID NO: 354 (antibody, V domains shown)
VH: EVQLVESGGGLVQPGRSLRLSCTASGLTFTHYHMSWFRQAPGKGLEWVAIIRNKAYGYTTDYSASVRGRFTISRDDSKSILYLQMNSLKTEDTAVYYCVREGGYGYDGTFAYWGQGTLVTVSS
VL: DIQMTQSPSSLSASVGDRVTITCRASESVDNYGISFMNWFQQKPGQAPKLLIYAASNQGSGVPSRFSGSGSGTDFTLTISSMQPEDFATYYCQQSKEVPRTFGGGTKVEIK
modifications: humanized antibody 8C9 heavy chain variable region 01; humanized antibody 8C9 light chain variable region 01
B2: 1CP-153: humanized anti-CDCP1 antibody produced by 8C9; VH SEQ ID NO: 345, VL SEQ ID NO: 354 (antibody, V domains shown)
VH: B1 VH with A24T, F37V, L45P
VL: B1 VL
modifications: humanized antibody 8C9 heavy chain variable region 03; humanized antibody 8C9 light chain variable region 01
B3: 1CP-118: humanized anti-CDCP1 antibody produced by 8E5; VH SEQ ID NO: 349, VL SEQ ID NO: 358 (antibody, V domains shown)
VH: QVQLVQSGSELKKPGESVKVSCKASGYTLTDFSMHWVRQAPGQGLEWMGWINTETGAPTYADDFKGRFVLSLDTSVSTAYLQISSLKSEDTAVYYCSRGRDYDPHFDYWGQGTLVTVSS
VL: EIVLTQSPATLSLSPGERATLSCRASQSISDFLHWYQQKPGQSPRLLIKYASQSISGIPARFSGSGSGSDFTLTISSVEPEDFAVYYCQSAHSFPYTFGQGTKLEIK
modifications: humanized antibody 8E5 heavy chain variable region 03; humanized antibody 8E5 light chain variable region 02
B4: 1CP-123: humanized anti-CDCP1 antibody produced by 8E5; VH SEQ ID NO: 350, VL SEQ ID NO: 359 (antibody, V domains shown)
VH: B3 VH with V5Q, V20L, E46K, L70F, T78M
VL: B3 VL with P40S
modifications: humanized antibody 8E5 heavy chain variable region 04; humanized antibody 8E5 light chain variable region 03
B5: 1CP-122: humanized anti-CDCP1 antibody produced by 8E5; VH SEQ ID NO: 349, VL SEQ ID NO: 359 (antibody, V domains shown)
VH: B3 VH
VL: B3 VL with P40S
modifications: humanized antibody 8E5 heavy chain variable region 03; humanized antibody 8E5 light chain variable region 03
B6: 1CP-119: humanized anti-CDCP1 antibody produced by 8E5; VH SEQ ID NO: 350, VL SEQ ID NO: 358 (antibody, V domains shown)
VH: B3 VH with V5Q, V20L, E46K, L70F, T78M
VL: B3 VL
modifications: humanized antibody 8E5 heavy chain variable region 04; humanized antibody 8E5 light chain variable region 02
B7: 1CP-120: humanized anti-CDCP1 antibody produced by 8E5; VH SEQ ID NO: 347, VL SEQ ID NO: 359 (antibody, V domains shown)
VH: B3 VH with E16A, L70F, S88A
VL: B3 VL with P40S
modifications: humanized antibody 8E5 heavy chain variable region 01; humanized antibody 8E5 light chain variable region 03
B8: 1CP-127: humanized anti-CDCP1 antibody produced by 3C11; VH SEQ ID NO: 342, VL SEQ ID NO: 351 (antibody, V domains shown)
VH: QVQLVQSGAEVKKPGASVKVSCKASGYNFISYWLHWVRQAPGQGLEWMGGIYPGNTDTTYNQKFKGRVTVTAVTSTSTVYMELSSLRSEDTAVYYCIRYDYDRGMDYWGQGTLVTVSS
VL: DIQMTQSPSSLSASVGDRVTITCRASEDIYYRLAWYQQKPGKAPKLLISGATALETGVPSRFSGSGSGKDYTFTISSLQPEDIATYYCQHYWNIPWTFGQGTKVEIK
modifications: humanized antibody 3C11 heavy chain variable region 04; humanized antibody 3C11 light chain variable region 01
B9: 1CP-133: humanized anti-CDCP1 antibody produced by 3C11; VH SEQ ID NO: 340, VL SEQ ID NO: 353 (antibody, V domains shown)
VH: B8 VH with V70M, V73D
VL: B8 VL with K42N, F73L
modifications: humanized antibody 3C11 heavy chain variable region 02; humanized antibody 3C11 light chain variable region 03
B10: 1CP-135: humanized anti-CDCP1 antibody produced by 3C11; VH SEQ ID NO: 342, VL SEQ ID NO: 353 (antibody, V domains shown)
VH: B8 VH
VL: B8 VL with K42N, F73L
modifications: humanized antibody 3C11 heavy chain variable region 04; humanized antibody 3C11 light chain variable region 03
B11: 1CP-131: humanized anti-CDCP1 antibody produced by 3C11; VH SEQ ID NO: 342, VL SEQ ID NO: 352 (antibody, V domains shown)
VH: B8 VH
VL: B8 VL with F73L
modifications: humanized antibody 3C11 heavy chain variable region 04; humanized antibody 3C11 light chain variable region 02
B12: 1CP-132: humanized anti-CDCP1 antibody produced by 3C11; VH SEQ ID NO: 339, VL SEQ ID NO: 353 (antibody, V domains shown)
VH: B8 VH with V70M, A72R, V73D
VL: B8 VL with K42N, F73L
modifications: humanized antibody 3C11 heavy chain variable region 01; humanized antibody 3C11 light chain variable region 03

Target: T1, HuCDCP1-C (Homo sapiens, UniProt Q9H5V8)
T1 construct: made in house; host or cells: HEK-293T
T1 sequence (Q9H5V8 30-667): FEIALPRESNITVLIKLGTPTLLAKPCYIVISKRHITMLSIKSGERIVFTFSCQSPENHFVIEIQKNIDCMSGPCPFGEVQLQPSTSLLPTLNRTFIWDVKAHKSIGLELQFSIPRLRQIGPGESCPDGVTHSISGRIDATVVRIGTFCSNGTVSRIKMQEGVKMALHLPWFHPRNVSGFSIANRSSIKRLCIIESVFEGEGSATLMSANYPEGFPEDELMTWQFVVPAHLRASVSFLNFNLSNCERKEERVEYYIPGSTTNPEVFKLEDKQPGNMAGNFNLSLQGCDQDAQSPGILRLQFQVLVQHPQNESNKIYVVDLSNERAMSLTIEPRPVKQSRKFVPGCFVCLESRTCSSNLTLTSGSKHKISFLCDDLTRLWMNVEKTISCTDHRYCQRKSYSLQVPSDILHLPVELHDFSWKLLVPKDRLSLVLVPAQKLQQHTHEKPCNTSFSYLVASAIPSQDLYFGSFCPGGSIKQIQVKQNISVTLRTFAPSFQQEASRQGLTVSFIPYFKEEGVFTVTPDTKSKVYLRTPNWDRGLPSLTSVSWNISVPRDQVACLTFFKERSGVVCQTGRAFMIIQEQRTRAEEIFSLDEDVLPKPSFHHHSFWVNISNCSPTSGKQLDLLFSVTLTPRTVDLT
Experiment: Caterra affinity of humanized anti-CDCP1 antibodies
Format: binding
Settings: HuCDCP1-C 2 μg/ml immobilized
Procedure: The humanized anti-CDCP1 antibodies obtained from Example 11 were subjected to gene cloning, constructed into pTT5 expression vector for a small amount of expression in CHO cells (Expi-CHOS: Gibco A29127), and purified with an Fc affinity column (AT Protein A Diamond Plus. No. AA402312). Antibody purity was analyzed by HPLC and determined by Nanodrop. High-throughput affinity assay was carried out for a small amount of antibodies by Caterra.

Molecule	ka [M⁻¹ s⁻¹]	kd [s⁻¹]
B1	158000	0.00302
B2	108000	0.000388
B3	168000	0.00225
B4	199000	0.00227
B5	167000	0.00209
B6	226000	0.00124
B7	139000	1.7e-05
B8	205000	0.00198
B9	183000	1e-05
B10	249000	0.0012
B11	191000	0.002
B12	140000	1e-05
